According to paper PMC3581573 (2013):

Biological target: Recombinant Flag-tagged human PRMT5 (Homo sapiens (Human), UniProt O14744)
Test: anti-Flag pulldown with immunoblot

Chain of Recombinant Flag-tagged human PRMT5 (O14744 whole entry): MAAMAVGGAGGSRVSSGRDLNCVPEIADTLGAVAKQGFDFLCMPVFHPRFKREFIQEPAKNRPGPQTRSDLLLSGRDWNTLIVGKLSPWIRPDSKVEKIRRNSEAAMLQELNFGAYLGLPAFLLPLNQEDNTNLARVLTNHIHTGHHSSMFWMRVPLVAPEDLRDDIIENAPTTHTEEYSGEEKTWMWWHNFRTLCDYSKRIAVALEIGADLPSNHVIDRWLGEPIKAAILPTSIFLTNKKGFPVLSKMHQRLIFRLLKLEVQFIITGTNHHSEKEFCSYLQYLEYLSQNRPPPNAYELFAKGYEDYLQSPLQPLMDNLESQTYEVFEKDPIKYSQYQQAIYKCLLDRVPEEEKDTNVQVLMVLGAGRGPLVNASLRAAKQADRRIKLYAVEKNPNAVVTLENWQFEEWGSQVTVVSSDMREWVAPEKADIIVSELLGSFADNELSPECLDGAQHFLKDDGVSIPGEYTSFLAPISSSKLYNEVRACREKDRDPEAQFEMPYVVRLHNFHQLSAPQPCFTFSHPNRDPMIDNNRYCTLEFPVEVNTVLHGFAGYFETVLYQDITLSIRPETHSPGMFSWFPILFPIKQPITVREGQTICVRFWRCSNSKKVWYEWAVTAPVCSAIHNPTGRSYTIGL

B1: Recombinant Xenopus laevis MEP50 alone (protein)
chain: MSKGSAWGRPVTAPACMEVQIGAVRYRRDGALLLAASSLSSRTWGGSIWVFKDPEGAPNESLCTAGVQTEAGVTDVAWVSEKGILVASDSGAVELWEILEKESLLVNKFAKYEHDDIVKTLSVFSDGTQAVSGGKDFSVKVWDLSQKAVLKSYNAHSSEVNCVAACPGKDTIFLSCGEDGRILLWDTRKPKPATRIDFCASDTIPTSVTWHPEKDDTFACGDETGNVSLVNIKNPDSAQTSAVHSQNITGLAYSYHSSPFLASISEDCTVAVLDADFSEVFRDLSHRDFVTGVAWSPLDHSKFTTVGWDHKVLHHHLPSEGRTENLIATKAED
**Q.** Does B1 bind?
**A.** binds
